Experimental data taken from patent US20250263490A1 (VIB VZW, published 2025).
Residue numbers refer to the chain shown, from its start.

T1: E433R
T1 construct: also called human CI-M6PR Dom1-3His6 E433R
T1 chain: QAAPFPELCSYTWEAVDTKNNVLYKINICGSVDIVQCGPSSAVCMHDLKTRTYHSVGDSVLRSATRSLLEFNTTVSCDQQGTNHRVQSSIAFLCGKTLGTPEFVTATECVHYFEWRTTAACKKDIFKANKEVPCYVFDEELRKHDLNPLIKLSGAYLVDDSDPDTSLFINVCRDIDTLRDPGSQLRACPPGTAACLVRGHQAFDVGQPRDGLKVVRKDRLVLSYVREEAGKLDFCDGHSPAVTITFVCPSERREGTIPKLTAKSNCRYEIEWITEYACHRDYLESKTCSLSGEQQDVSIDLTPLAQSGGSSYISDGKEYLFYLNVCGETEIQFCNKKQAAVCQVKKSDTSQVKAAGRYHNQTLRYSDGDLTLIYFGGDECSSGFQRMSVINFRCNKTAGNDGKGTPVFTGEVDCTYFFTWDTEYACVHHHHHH

T2: L197D
T2 construct: also called human CI-M6PR Dom1-3His6 L197D
T2 chain: T1 chain with L157D, R393E

T3: E148R
T3 construct: also called human CI-M6PR Dom1-3His6 E148F
T3 chain: T1 chain with E108F, R393E

B1: anti-CI-M6PR VHH8 (VHH)
VHH: QVQLQESGGGLVQAGGSLRLSCEASGRTFNTYNWGWFRQAPGKEREFVAAIRWSSSKTSYADSVKGRFTISRDNAKNTIYLQMNSLKPEDTAVYYCAASIVDFTTNPSHFGSWGQGTQVTVSS
notes: His6-tagged (Pichia pastoris)
B2: anti-CI-M6PR VHH5 (VHH)
VHH: QVQLQESGGGLVQAGGSLKLSCAAAGRTFSRLAMGWFRQAPGKEREFVAAISENGDSIHYSDSVKGRFAVSRDNAKNTVYLQMNSLKPEDTAIYYCAADRAAYYCSGSGCYPSRAPAAASYDYWGQGTQVTVSS
notes: His6-tagged; made in Pichia pastoris, later also in E. coli WK6
B3: anti-CI-M6PR VHH 1H11 (VHH)
VHH: QVQLQESGGGLVQPGGSLRLSCAASGIIFSDNRMDWYRQAPGKQREWVATLASYGWKTYADSVKDRFTISRDNAKNTVNLYMNSLQPEDTAVYYCNSGQYWGQGTQVTVSS
notes: made in E. coli WK6, His-tag purified
B4: anti-CI-M6PR VHH4 (VHH)
VHH: QVQLQESGGGLVQAGGSLRLSCAASGRTFSNYVMGWFRQAPGKEREFVGSISQGGKMTYYPDSVKGRFTISRDNAKNTMYLQMDGLKPEDTAVYYCAVSRGYPMVRVSEVDYWGQGTQVTVSS
notes: His6-tagged; made in Pichia pastoris
B5: anti-CI-M6PR VHH7 (VHH)
VHH: QVQLQESGGGLVQPGGSLRLSCAASGIIFSDNRMDWYRQAPGKQREWVATLASYGWKTYADSVKGRFTISRDNTKNTVYLRMNSLKPEDTAVYYCKASSPVLNDIWGQGTQVTVSS
notes: His6-tagged (Pichia pastoris)
B6: anti-CI-M6PR VHH1 (VHH)
VHH: QVQLQESGGGLVQPGGSLRLSCVASGFTFDRYWMNWLRQIPGKEIEWVSTINTGGTGTYYDDSVKGRFSISRDDAKNTLYLTMNSLKTEDTAVYYCARGATYYRGNSAIRGQGTQVTVSS
notes: as for B2
B7: anti-CI-M6PR VHH10 (VHH)
VHH: QVQLQESGGGSVQAGGSLRLSCAPAGRTFSRIRMGWFRQAPGKEREFVAAISSGGLSYYADSMKGRFTISRDNAKNTVLLQMNSLEPDDTAVYYCAAVLNDYIDDYVARNPTLYDYWGQGTQVTVSS
notes: as for B4
B8: anti-CI-M6PR VHH9 (VHH)
VHH: QVQLQESGGGLVQAGGSLRLSCAASGTILSIKTMGWYRQAPGKEREWVATITSSSIPMYADSVKGRFTISRDDAKNTVYLQMNSLKPEDTGVYYCNAPWTDYWGQGTQVTVSS
notes: as for B4
B9: anti-CI-M6PR VHH3 (VHH)
VHH: QVQLQESGGGLVQPGGSLRLSCAAFGLNFKNFDMIWFRQAPGEERDIVAAISSSSSTIWYEDSVKGRFTISRDNAKNTVYLQMNSLKPEDTAVYYCAAALTSWRRPDYWGQGTQVTVSS
notes: as for B4
B10: anti-CI-M6PR VHH6 (VHH)
VHH: QVQLQESGGGLVQAGGSLRLSCAVSGSISSIGGMGWFRQAPGKQREFVAVILNNSGMTSYADSVKGRFTISRGNSKNTMYLQMNSLKPEDTAVYYCNYSGYWGQGTQVTVSS
notes: His6-tagged; made in E. coli
B11: anti-CI-M6PR VHH11 (VHH)
VHH: QVQLQESGGGLVQAGDSLKLSCTASGPTFSEITGGWFRQVPGKEREFVASISSTGITTYYTDSVKGRFTVSRDNAKNTMYLQMNSLKPEDTGVYYCAARSTSRSIAITVGYDYWGQGTQVTVSS
notes: as for B4

Biological target: T1, E433R
Test: ELISA on coated antigen (100 ng), anti-VHH-HRP, A450
Protocol: (§1) To determine the effect of site-directed mutations, an ELISA was performed. To this end, 100 ng of each successfully purified mutant was coated per well on Nunc Maxisorp plates in 50 mM MES, 150 mM NaCl, pH 6.5 buffer overnight at 4° C. […] Coating-only controls were included for background correction. […] Reactions were stopped after five minutes using a 2N H₂SO₄ solution and plates were read at 450 nm, with a 655 nm background correction. Data were analyzed using the GraphPad Prism 9 software.

Row | EC50 (read off the curve) | Binder
1 | ~3 nM | B1
2 | ~3 nM | B2
3 | ~0.4 nM | B3

Biological target: T2, L197D
Test: as above
Protocol: as §1

Row | EC50 (read off the curve) | Binder
4 | ~20 nM | B1
5 | ~4 nM | B2
6 | ~0.4 nM | B3

biological target: T4, recombinant human domain 1-3His6 of the cation-independent mannose-6-phosphate receptor (human, UniProt P11717 41-467); test: BLI exp 1, dissoc pH 7
T4 construct: Biotinylated (NHS-PEG4-biotin) for BLI; Glycosylated; also called hDom1-3His6; hCI-M6PRD1-D3
Protocol: (§2) For each of the 11 anti-CI-M6PR VHHs, a biolayer interferometry (BLI) experiment was performed in which the hDom₁₋₃His₆ was biotinylated and coupled to streptavidin biosensor tips. Afterwards, the tips were incubated with serially diluted VHHs during the association phase and dissociation was performed at pH 7.4. Similarly, dissociation was performed at pH 7.0, pH 6.0 and pH 5.0 as well after regeneration of the biosensor tips. […] The anti-CI-M6PR antibody (clone 2G11) and GBP were used as positive and negative controls, respectively.
(§3) Analysis of the binding kinetics was performed using an Octet Red96 (FortéBio) device with Streptavidin SA Biosensor tips (VWR 733-2145). Therefore, 1 mL of human domain₁₋₃His₆ (0.5 mg/mL in 50 mM MES, 150 mM NaCl, pH 6.5) was incubated at room temperature for 30 minutes with EZ-Link™ NHS-PEG4-Biotin (1 mg) (Thermo Fischer A39259) and NaHCO₃ (100 mM). Biotinylated human domain₁₋₃His₆ was purified using a Zeba spin desalting Column™ (7K MWCO, 2 mL, Thermo Fischer 89890) and 1 μg/mL was used for immobilization on the Streptavidin SA Biosensor tips. The loaded tips were dipped into a particular anti-CI-M6PR VHH solution, serially diluted in kinetics buffer (0.2M NaH₂PO₄, 0.1M Na⁺ citrate, 0.01% BSA, 0.002% Tween20, pH 7.4). This was followed by dissociation of the particular anti-CI-M6PR VHH in kinetics buffer of pH 7.4, followed by regeneration in Glycine (10 mM, pH 3) and neutralisation. Same cycle was repeated but the dissociation was performed at pH 7.0, 6.0, 5.0, 4.5 and 4.0. A reference well and reference sensors were subtracted from ligand sensors afterwards and Savitsky-Golay filtering was applied on the data. Fitting of the data was performed using a 1:1 model, grouped per pH of dissociation.

Row | Kd | koff | kon | Binder
7 | 6.45 nM | 0.00368 s⁻¹ | 570000 M⁻¹ s⁻¹ | B1
8 | 0.346 nM | 0.000412 s⁻¹ | 1.19e+06 M⁻¹ s⁻¹ | B2
9 | 2.2 nM | 0.00126 s⁻¹ | 572000 M⁻¹ s⁻¹ | B4
10 | 8.08 nM | 0.00698 s⁻¹ | 864000 M⁻¹ s⁻¹ | B5
11 | 6.05 nM | ~0.00756 s⁻¹ | 1.25e+06 M⁻¹ s⁻¹ | B6
12 |  | 0.00148 s⁻¹ | 99300 M⁻¹ s⁻¹ | B7
13 | 0.476 nM | 0.00051 s⁻¹ | 1.07e+06 M⁻¹ s⁻¹ | B8
14 | 0.269 nM | 0.000604 s⁻¹ | 2.24e+06 M⁻¹ s⁻¹ | B9
15 | 2.65 nM | 0.00227 s⁻¹ | 856000 M⁻¹ s⁻¹ | B10
16 | 20.3 nM | 0.00394 s⁻¹ | 194000 M⁻¹ s⁻¹ | B11

Biological target: T3, E148R
Test: ELISA on coated antigen (100 ng; labelled E148R on the sheet, E148F in the text), anti-VHH-HRP, A450
Protocol: as §1

Row | EC50 (read off the curve) | Binder
17 | ~3 nM | B1
18 | ~2 nM | B2
19 | ~9 nM | B3

biological target: T4, recombinant human domain 1-3His6 of the …; test: BLI at pH 7.4, 1st of 2 repeats
Protocol: as §2, §3

Row | Kd | koff | kon | Binder
20 | 1.69 nM | 0.000787 s⁻¹ | 465000 M⁻¹ s⁻¹ | B1
21 | 0.0903 nM | 0.000124 s⁻¹ | 1.37e+06 M⁻¹ s⁻¹ | B2
22 | 10.8 nM | 0.00999 s⁻¹ | 924000 M⁻¹ s⁻¹ | B5
23 | 7.44 nM | ~0.00606 s⁻¹ | 814000 M⁻¹ s⁻¹ | B6
24 | 46.3 nM | 0.00177 s⁻¹ | 38100 M⁻¹ s⁻¹ | B7
25 | 0.282 nM | 0.000444 s⁻¹ | 1.57e+06 M⁻¹ s⁻¹ | B8
26 | ≤ 0.000117 nM | ≤ 1e-07 s⁻¹ | 853000 M⁻¹ s⁻¹ | B9
27 | 3.35 nM | 0.00352 s⁻¹ | 1.05e+06 M⁻¹ s⁻¹ | B10
28 | 41.4 nM | 0.00317 s⁻¹ | 76700 M⁻¹ s⁻¹ | B11
